Measurements taken from US20160152995A1, “METHODS AND COMPOSITIONS TO IMPROVE THE SPREAD OF CHEMICAL SIGNALS IN PLANTS” (PIONEER HI-BRED INTERNATIONAL, INC., priority 2013, published 2016).

Columns and labels:
[1] = system: β-gal background activity; assay: First and second round library screen (L1, L2) for induction by sulfonylurea ligands, β-gal colony assay; assay type: cell-based, E. coli
Description: The original library was designed to thifensulfuron, but once induction activity was established with other SU compounds having potentially better soil and in planta stability properties than the original ligand, the evolution process was re-directed towards these alternative ligands. Of particular interest were herbicides metsulfuron, sulfometuron, ethametsulfuron and chlorsulfuron. For this objective, parental clones L1-9, -22, -29 and -44 were chosen for further shuffling. Clone L1-9 has strong activity on both ethametsulfuron and chlorsulfuron; clone L1-22 has strong sulfometuron activity; clone L1-29 has moderate metsulfuron activity; and clone L1-44 has moderate activity on metsulfuron, ethametsulfuron and chlorsulfuron. (Data not shown.). No clones found in the initial screen were exceptionally reactive to metsulfuron. These four clones were also chosen due to their relatively strong repressor activity, showing low β-gal background activity without inducer. Strong repressor activity is important for establishing a system which is both highly sensitive to the presence of inducer, and tightly off in the absence of inducer.
Based on the sequence information from parental clones L1-9, -22, -29 and -44, two second round libraries were designed, constructed and screened. The first library, L2, consisted of a ‘family’ shuffle whereby the amino acid diversity between the selected parental clones was varied using synthetic assembly of oligonucleotides to find clones improved in responsiveness to any of the four new target ligands.
The L2 oligonucleotides were assembled, cloned and screened as per the protocol described for library L1 except that each ligand was tested at 2 ppm to increase the stringency of the assay, which is a 10-fold reduction from 1st round library screening concentration.

E. coli assay strain Km3 [2] = assay: Liquid B-galactosidase assays of chlorsulfuron repressor hits (induction and repression); settings: for F. IND = fold induction (IND/REP) (B-galactosidase) / IND = induction with 20 ppb CS (B-galactosidase) / REP = repression in absence of inducer (B-galactosidase): CsL4.2 hits
Experimental: In order to create new diversity for shuffling the top clone from CsL3 was subjected to error prone PCR mutagenesis using Mutazyme (Stratagene). The mutated PCR product encoding the CsR ligand binding domain was inserted into library expression vector pVER7334 as a Sac1 to Asc1 fragment, transformed into library strain Km3 and plated onto LB+40 ug/ml Kanamycin and 50 ug/ml Carbenecillin. Approximately 10,000 colonies were then replica plated onto M9 Xgal assay medium +/−20 ppb Cs. Putative hits were then re-arrayed and replica plated onto the same assay medium. Performance was gauged by the level of blue colony color after 24 hrs incubation on inducer (induction) and 72 hrs incubation without inducer (repression). The top hits were then subjected to liquid B-galactosidase assays for quantitative assessment (Table 21).
Seventh round library CsL4.2 was designed based on the best diversity from CsL3 and CsL3-MTZ library screens (Table 14). The library was assembled with oligonucleotides shown below in Table 22. The first and last primers were used as rescue primers. CsL4.2 included a C-terminal 6×His-tag extension to facilitate protein purification. The library was assembled and cloned into vector pVER7334 Sac1 to Asc1, transformed into library assay strain Km3 and plated onto LB+40 ug/m1 Kanamycin and 50 ug/ml carbenecillin. Approximately 8,000 colonies were re-arrayed into 384-well format and replica plated onto M9 Xgal assay medium +/−2 ppb Cs. Putative hits were re-arrayed in 96-well format onto the same media for re-testing. Confirmed hits were then tested for induction and repression aspects in liquid culture using B-galactosidase assays.
Mutagenesis reactions were transformed into E. coli assay strain Km3 and plated onto LB+50 ug/ml Carbenecillin. Colonies were then re-arrayed into 384 well format and replica plated onto M9 Xgal assay medium +/−5 ppb Chlorsulfuron. Putative hits were then re-arrayed and analyzed by B-galactosidase assays relative to the parent clones (FIG. 10).

E. coli assay strain Km3 [3] = assay type: cell-based
Experimental: Library L6 was assembled, rescued, ligated into pVER7314, transformed into E. coli KM3 and plated out onto LB carbenicillin/kanamycin, and carbenicillin only control media as before. Library plates were then picked into 42 384-well microtiter plates (˜16,000 clones) containing 60 μl LB carbenicillin (Cb) broth per well. After overnight growth at 37° C. the cultures were stamped onto M9 assay plates containing no inducer, 0.2 ppm, and 2.0 ppm chlorsulfuron as test inducer. Following incubation at 30° C. for ˜48 hrs, putative hits responding to chlorsulfuron treatment as determined by increased blue colony color were re-arrayed into six 96-well microtiter plates and used to stamp a fresh set of M9 assay plates to confirm the above results. For a more detailed analysis of the relative induction by chlorsulfuron, digital photographs were taken of the plates after various time points of incubation at 30° C. and colony color intensity measured using the digital image analysis freeware program ImageJ (Rasband, US National Institutes of Health, Bethesda, Md., USA, rsb.info.nih.gov/ij/, 1997-2007). […] From this analysis sequence-activity relationships were derived. […] Briefly, C at position 100, and Q at positions 108 and 109 strongly correlated with activation, while R at position 138, L at position 170, and A or G at position 173 were highly preferred in clones with the lowest background activity. […] This information will aid in the design of further libraries to improve responsiveness to chlorsulfuron.
Library L8 construction and screening. Fourth round shuffling incorporated the best diversity from Rd3 shuffling (BB1860) as well as computational diversity (Table 14). As diversity was very high the library oligo mix was spiked into the parental hit variant oligo mix (5, 10, and 25% mixes) to titer down the number of residue changes per clone. In addition, to varying residues for Cs activity, seven residues (C68, C86, C88, C121, C144, C195, and C203) were varied with TetR family phylogenetic substitutions in an attempt to reduce the number of cysteine residues in the repressor. The PCR assembled libraries were cloned Sac1/Asc1 into pVER7334. This plasmid encodes PBAD promoter controlled expression of a plant optimized TetR DNA binding domain fused to the wt ligand binding domain of TetR(B) encoded by native Tn10 sequence on a Sac1 to Asc1 fragment. Approximately 15,000 clones were screened for blue colony color on the M9 Xgal assay plates +/−200 ppb Chlorsulfuron (Cs). Clones were ranked by ratio of color with inducer after 24 hrs incubation over colony color without inducer for 48 hrs of incubation. The sequence trend in the overall larger population of hits (first re-array) was that L55, R104, W105 and L170 were maintained while the C144A substitution was highly preferred. Sequence trends within the hit population were then noted with respect to repression, induction and fold induction (which corrects for leakiness).
Mutagenesis reactions were transformed into library strain Km3 and 96 colonies tested for substitution by DNA sequence analysis. Substitutions representing each possible residue at each position were then re-arrayed in triplicate onto M9 X-gal assay plates with 0, 20 and 200 ppb Chlorsulfuron. Plates were incubated at 37° C. for 24 and 48 hrs prior to imaging. Residue substitutions were then ranked by activation (emphasis on 20 ppb Cs) and repression characteristics (emphasis on 48 hr time point). The mutation with the greatest impact on activity was substitution of residue N82 to phenylalanine or tyrosine. […] All other preferred substitutions shown in Table 18 either improved repression or improved sensitivity to inducer without compromising repressor function. Certain residues were indispensible to function such as R104, W105, and W174 as substitutions were not allowed. Other residue positions such as R138 and K177 were also flagged as critical since functional substitutions were extremely limited. […]

[4] = liquid B-galactosidase assay, 20 ppb Cs
[5] = liquid B-galactosidase assay, no inducer

B1: clone L1-22: SuR polypeptide, SEQ ID NO:7 (protein)
chain: MGSRLDKSKVINSALELLNEVGIEGLTTRKLAQKLGVEQPTLYWHVKNKRALLDALAIEMMDRHHTHFCPLEGESWQDFLRNTAKSYRCALLSHRDGAKVCLGTAITEKQYETKENNLAFLCQQGFSLENALYARQAVRVFTLGCVLFDQEMQVAKEERETPTTDSMPPLLRQASELLDHQGAEPAFLFGLELIICGLEKQLKSESGS
modifications: Sulfonylurea responsive repressor
induction activity on sulfometuron ([1]; library L1 initial screen, data not shown): strong | Inducer preference ([1]; β-gal colony assay, L2 library screened with each ligand at 2 ppm, numbers are the patent's inducer ligand numbers, atc for wt): 3

B2: CsL4.2-12 (protein)
chain: MARLDKSKVINSALELLNEVGIEGLTTRKLAQKLGVEQPTLYWHVKNKRALLDALAIEMHDRHGTHYLPLEGESWQDFLRNFAKSMRRALLSHRDGAKVALGTRWTEQQYETAENMLAFLTQQGFSLENALYATSAVRVFTLGAVLLDQEGQVANEERETPTTDSMPPLLRQAWELKVHQGAEPAFLFGLELIIAGLEKQLKRESGSHHHHHH
modifications: Sulfonylurea responsive repressor
F. IND = fold induction (IND/REP) (B-galactosidase) (E. coli assay strain Km3 [2]; 20 ppb Cs vs no inducer): 9.5 | IND = induction with 20 ppb CS (B-galactosidase) (E. coli assay strain Km3 [2]; [4]): 6.4 | REP = repression in absence of inducer (B-galactosidase) (E. coli assay strain Km3 [2]; [5]): 0.7

B3: CsL4.2-11 (protein)
chain: MARLDKSKVINSALELLNEVGIEGLTTRKLAQKLGVEQPTLYWHVKNKRALLDALAIEMHDRHGTHYLPLEGESWQDYLRNFAKSMRRALLSHRDGAKVSLGTRWTEQQYETAENMLAFLTQQGFSLENALYATSAVRVFTLGAVLLDQEQQVAKEERETPTTDSMPPLLRQAWELKEHQGAEPAFLFGLELIIAGLEKQLXRESGSHHHHHH
modifications: not fully specified; Sulfonylurea responsive repressor; VARIANT 202: Xaa = Any Amino Acid
F. IND = fold induction (IND/REP) (B-galactosidase) (E. coli assay strain Km3 [2]; 20 ppb Cs vs no inducer): 8.9 | IND = induction with 20 ppb CS (B-galactosidase) (E. coli assay strain Km3 [2]; [4]): 4.8 | REP = repression in absence of inducer (B-galactosidase) (E. coli assay strain Km3 [2]; [5]): 0.5

B4: CsL4.2-18 (protein)
chain: MARLDKSKVINSALELLNEVGIEGLTTRKLAQKLGVEQPTLYWHVKNKRALLDALAIEMMDRHQTHYLPLEGESWQDFLRNFAKSMRCALLSHRDGAKVALGTRWTEQQYETAENMLAFLTQQGFSLENALYATSAVRVFTLGAVLLDQEQQVAKEERETPTPDRMPPLLRQAWELKVHQGAEPAFLFGLELLIAGLEKQLKRESGSHHHHHH
modifications: Sulfonylurea responsive repressor
F. IND = fold induction (IND/REP) (B-galactosidase) (E. coli assay strain Km3 [2]; 20 ppb Cs vs no inducer): 9.3 | IND = induction with 20 ppb CS (B-galactosidase) (E. coli assay strain Km3 [2]; [4]): 6.8 | REP = repression in absence of inducer (B-galactosidase) (E. coli assay strain Km3 [2]; [5]): 0.7

B5: CsL4.2-20: Chlorsulfuron (Cs) repressor, top hit of library CsL4.2 (protein)
chain: MARLDKSKVINSALELLNEVGIEGLTTRKLAQKLGVEQPTLYWHVKNKRALLDALAIEMHDRHQTHYLPLEGESWQDFLRNFAKSMRLALLSHRDGAKVSLGTRWTEQQYETAENMLAFLTQQGFSLENALYATDAVRVFTLGAVLLDQEQQVAKEERETPTPDSMPPLLRQAWELKVHQGAEPAFLFGLELIIAGLEKQLKRESGS
modifications: Sulfonylurea responsive repressor
IND = induction with 20 ppb CS (B-galactosidase) (E. coli assay strain Km3 [2]; [4]): 7.4 | REP = repression in absence of inducer (B-galactosidase) (E. coli assay strain Km3 [2]; [5]): 0.2

B6: L8-3F01: library L8 chlorsulfuron repressor hit, parent for saturation mutagenesis (protein)
chain: MARLDKSKVINSALELLNEVGIEGLTTRKLAQKLGVEQPTLYWHVKNKRALLDALAIEMMDRHQTHYLPLEGESWQDFLRNNAKSCRRALLSHRDGAKVCLGTRWTEQQYETAENMLAFLTQQGFSLENALYAVSAVRVFTLGAVLFDQESQVAKEERETPTTDSMPPLLRQAWELKDHQGAEPAFLFGLELIIAGLEKQLKRESGS
modifications: Sulfonylurea responsive repressor
notes: library L8 chlorsulfuron repressor hit, parent for saturation mutagenesis
F. IND = fold induction (IND/REP) (Colony Assay Results) (E. coli assay strain Km3 [3]; CsL3 hits, 20 ppb Cs vs no inducer): 2.5 | REP = repression in absence of inducer (Colony Assay Results) (E. coli assay strain Km3 [3]; CsL3 hits, M9 Xgal colony color, 0 ppb Cs): 0.7 | IND = induction with 20 ppb CS (Colony Assay Results) (E. coli assay strain Km3 [3]; CsL3 hits, M9 Xgal colony color, 20 ppb Cs): 1.6 | IND = induction with 200 ppb Cs at 24 hrs (blue colony color intensity thru ImageJ analysis) (E. coli assay strain Km3 [3]; library L8 hits, M9 Xgal colony assay, 200 ppb Chlorsulfuron, 24 hrs): 1.7 | F. IND = fold induction: induction with 200 ppb Cs at 24 hrs/repression at 48 hrs (E. coli assay strain Km3 [3]; library L8 hits, M9 Xgal colony assay, ratio IND (200 ppb Cs, 24 hrs) / REP (48 hrs)): 3.0 | REP = repression measured without inducer after 48 hrs (blue colony color intensity thru ImageJ analysis) (E. coli assay strain Km3 [3]; library L8 hits, M9 Xgal colony assay, without inducer, 48 hrs): 0.6 | F. IND = fold induction (IND/REP) (B-galactosidase assay) (E. coli assay strain Km3 [2]; CsL3-MTZ hits, 20 ppb Cs vs no inducer): 1 | IND = induction with 20 ppb CS (B-galactosidase assay) (E. coli assay strain Km3 [2]; CsL3-MTZ hits, liquid B-galactosidase assay, 20 ppb Cs): 8 | REP = repression in absence of inducer (B-galactosidase assay) (E. coli assay strain Km3 [2]; CsL3-MTZ hits, liquid B-galactosidase assay, no inducer): 7 | F. IND = fold induction (IND/REP) (B-galactosidase) (E. coli assay strain Km3 [2]; 20 ppb Cs vs no inducer): 2.0 | IND = induction with 20 ppb CS (B-galactosidase) (E. coli assay strain Km3 [2]; [4]): 0.9 | REP = repression in absence of inducer (B-galactosidase) (E. coli assay strain Km3 [2]; [5]): 0.4

B7: CsL4.2-27 (protein)
chain: MARLDKSKVINSALELLNEVGIEGLTTRKLAQKLGVEQPTLYWHVKNKRALLDALAIEMMDRHQTHYLPLEGESWQDFLRNFAKSMRCALLSHRDGAKVSLGTRWTEQQYETAENMLAFLTQQGFSLENALYATDAVRVFTLGAVLLDQEQQVAKEERETPTPDRMPPLLQQAWELKEHQGAEPAFLFGLELIIAGLEKQLKRDSGSHHHHHH
modifications: Sulfonylurea responsive repressor
F. IND = fold induction (IND/REP) (B-galactosidase) (E. coli assay strain Km3 [2]; 20 ppb Cs vs no inducer): 9.1 | IND = induction with 20 ppb CS (B-galactosidase) (E. coli assay strain Km3 [2]; [4]): 3.2 | REP = repression in absence of inducer (B-galactosidase) (E. coli assay strain Km3 [2]; [5]): 0.4
